# From patent publication US12077763B2, “RNA-based control of powdery mildew” (Greenlight Biosciences, Inc., priority 2021, dated 2024)
# Tested on: E. necator
# Test: Leaf disc assay, dry inoculum (settling tower), decrease in disease severity / hyphal growth (Example 2)
# Conditions: decrease in disease severity (hyphal growth) relative to untreated control, value ± SE; for % decrease =/− SE TP1: time point 1 (untreated control hyphal growth ≥50%); for % decrease =/− SE TP2: time point 2
molecule,measurement,value
GS1892: dsRNA trigger SEQ ID NO 148; gene target COP9 signalosome complex subunit 5 (nucleic acid) CGAGCTCTTATAGTGTGAGATCTGCAGCGAGTAGTATCTACTACTATGGGCACCGAAATCTTCGATCTTAGATAGTGGTATCGTTTGATAACCATCGTTAGTTGACGATTCTGCCGCCTTGTAGTTTTCTGGATAGGTCCGGAATGCACCTATTTCAACCTTACCAGCTGAGATGGTGCGATCTGGGTCAATGACAACCGCAAGAAAAGGATCCGAGAATGATTGCTGTATATGCTGTGTGCTAACATCTATGCCACTGAGCCAGCAGCCATAGCCTGGATGACTGTGGTACCACCCCACTGCATTCTCTAACTTTCCTTGCTCTCGACATGCCTGGAGATAACGAACCATATATTCATTTGCCTCATCTTGGGCATTAACACGTGTCTCCGTGCCTTC,% decrease =/− SE TP1,8 ± 5%
same,% decrease =/− SE TP2,3 ± 6%
GS1893: dsRNA trigger SEQ ID NO 124; gene target C2H2 zinc finger domain (nucleic acid) CACAACCTTGGGTCTGTCCTTAATTTTTCCACCAAATAATCAATCCTACGACCATTGCGTGGGACAATAATTCAATAAGGAAAATTTAAATAAAAAAAAATTTAAAAAAAAAGAAAAAGAAAAAATTTAATTAAAATCCATAATAAATACTCTGTTAATATTTACAAGGGAATCTTAATTATTCAACCAACCAATTATCTCGGAAAAGGATAAAGGAGTTGGTTTACATCTAACGATTAGAAAGCCTTTGAACCTAGTATGCCCAATTCTCTTCATATGGATACCCAGTTTCACTCAAACAATATGAATAGCAGTACAGCGAATTATAGTTCATTGCCTAGCATTTCGCCTCATCAACTGCAGCAGCAAAATCAAATGCCGACTCATATTCT,% decrease =/− SE TP1,5 ± 5%
ES46: dsRNA trigger SEQ ID NO 110; gene target Hypotethical effector (nucleic acid) DNA: TTGGAAGAACCGCCAGAAAACCCAATCAGATACCGATCTCTACTCGGATCATCATTTCACTTCGCAACATGCAATTAACGGTTATGTACCTTCTATAGGCTTTGAATCCGATGGTTATGGGATTAGTAAGAGATCTAATCGTAAAACTGTTCATGGATATTACTGTGGGAGCTCAAAACATGAGCAGCATTTTTATGAGCAGGACTATATTAAAATATATACATGTCAAACATAATGCAAACTTAATTCCATATAGTTAACTGAAATGGTCATTTTTTCACAGCTTTAACTCAATTCCTTTTGAAGAGTGATAACTTTTACTTGCAATTCCTAATTAAAATAAGAGCACAAGCCTTAATTTTTGGATCTAAAATATCAATGCCAACCCCTTGTGCACTGTTGGTAGTGAAAATCTTCGTTATTTGTGACAACATCCACAATCTCGCACTGCGTATTGATA,% decrease =/− SE TP1,6 ± 0%
same,% decrease =/− SE TP2,5 ± 0%
GS1891: dsRNA trigger SEQ ID NO 122; gene target eka-like_protein (nucleic acid) CACCAACTGGGTGTCAGTACTAATACCAACAGTTCCAGCTGTTTTACATAAAGAACAAGGAGTAGTTGAAGTGAGCAACAGCATGCTTGCTGATGAGGTGGAACGTGTCTGCTCTGTGCGGCCAGCTCACATAAAGCTTTATGGAAGAAATAAACCTGAGGCACCGTATCGAACATGGATGGCTTTCTTCCCGAAAGCTCCACGCGGCACTTTTAAAGTGTTCGACGAATCTGGAATTGCGAGCGAGGTCTTTTAAAAAGCAGCAACCTCTCGAATTTTGTAAAAGATGCAATGGGCACCACTCTATTAAAAATTGCTCAAGGGCTCCTTCGTGCGGAAATTGTGGCTCGACCAATCATACCGAGGATTTATGTATGGCCGCAACTAAGTGTAGAAATTGTGG,% decrease =/− SE TP1,3 ± 7%
same,% decrease =/− SE TP2,4 ± 7%
GS1895: dsRNA trigger SEQ ID NO 125; gene target eka-like_protein (nucleic acid) ACGCGCGGCTAATGATATGCACAATGCACGGTGATTAGTAGCATAGATAGTACATTAGCGACTTTTACAAAAGAAGTAGAGATAGAAGAGGCTGTAGCTTTCAAAGCGTACCTCAAACTTGCAATAGCAAACTTTGCAGCAGTAGATTCGTCCCCTCCTCCACCTCGTGTCCCATTACATACAAGACCGAATAAAGGTAACGGAAATGATAGCAGTAAAGGGAAAAGTAAAGAGAAAAACTTGTCAAAGATAGCAGTCGCAATACCTCGTATTGCTTGTAATCGAATTATCATGGGCCACAGTAATCAAAATCCAAATCTGGGTACGATCAAAGAAATAGAATTACCAAAAATTATTAAAAATATGATATA,% decrease =/− SE TP2,4 ± 7%
GS1890: dsRNA trigger SEQ ID NO 154; gene target Pre-rRNA-processing protein FHL1 (nucleic acid) TAAAGGAATTGAAGGAGGAAAATTTGATGATGGATTGATAACAGACGGTACTTGCCCATTTATACGAGGTGGTAGCTGATAATTTGAAAAGTGACCTAATTGATTATGTGAAGATTCCATCGGGGCCCTGTACGTAAAGTGGCCTGCTATCTTTGAGAGACCATTTTGATAAGGAGTTTGTTGCAGACCTAGATAAGATTGAGGAGGCGGAGTAGCTCTCCTTTTTTTCTCTTTTTCAATAGATATACCGTCAACGATTCCCCAAGTCCAGCCTTTTCCATCCTTTTCAACTTTGCGGAAAGCATGGTGTTGTGATAGATTGTGACGAACACTACTTTGCCAGCCTAAGGTTTGAGTTTTAAATCTGAAATATGGGTATTTCCTGTATATAGCTCGGTAGATGT,% decrease =/− SE TP1,16 ± 5%
same,% decrease =/− SE TP2,4 ± 5%
GS2382 (nucleic acid) sense: AAAAGUUAUGGCGGAAAUCACUAUAUAUACUGCUUCACAUGCCUUACAAGGAGAAGAGGUCCGUGAGAAUUUUGACUCAUCUUUUGCCGCUCUUUAUCAUGAUCUUGAUAUGGGAUUUACACCGAUCAACUUUACAUUUUACUGGGCACCUCUACCUUGGAAUCGUGCUCGUGAUCAUGCCCAAAGAACUGUUGCUAGGA antisense: UCCUAGCAACAGUUCUUUGGGCAUGAUCACGAGCACGAUUCCAAGGUAGAGGUGCCCAGUAAAAUGUAAAGUUGAUCGGUGUAAAUCCCAUAUCAAGAUCAUGAUAAAGAGCGGCAAAAGAUGAGUCAAAAUUCUCACGGACCUCUUCUCCUUGUAAGGCAUGUGAAGCAGUAUAUAUAGUGAUUUCCGCCAUAACUUUU,% decrease =/− SE TP1,17 ± 0%
same,% decrease =/− SE TP2,4 ± 0%
GS1884: dsRNA trigger SEQ ID NO 187; gene target Peptidyl-prolyl cis-trans isomerase ssp-1 (nucleic acid) TAATACTTCATCTGGAAGCCATCGAGTTTGCTTTTTATTATCTGAATTTTTGAGGCATTAAACTACAATACCTATTAAGGTTCAATTCAACGTTACAGTATGTAGCAGTAAATATCATTTTTGGTATAAGAATAAAAATATTCAAATTTTTACCGAAAAAAATGAAGCAGTAAGTCATATTTCTGGGTCAAGTCTCTGTAAGTCTTGCGCATCAAGCTTGCAATTGAGACTCCAAATGTGACTGGATATGTATATATATATATATATGGTGTTATAGTTGTCAAATCGAATCTATTCTATTCTTTGAATCAGATGTAGACCAGATGCTGTTTCTATGATTTGACTCATTTCTCCAACTTTGAGTTCGAATGCAGCATCTTCGAATTCTTTCTGCATATCACCTCTACCAAAGAAACCAAGGTCACCTTGTTTTTTAGCACTATTGCAATCAGACTC,% decrease =/− SE TP1,12 ± 4%
ES45: dsRNA trigger SEQ ID NO 109; gene target Hypotethical effector (nucleic acid) DNA: CTCACCTTGGCATCTACGAAGCCGACAGGAAGGTGGTGGCTACTATGGCCAACCATCGAATGGTGATGGAAGTGTGTATCCACCTTCATCTGGTACAGGTGGCTTTCTATCGCCAACTGCTACGAGCGGTTATCCGTCTGCAACTGGAACTGGCGGCTATTCATCTCCATCGGGCACCGGTGGCTACCCGTCTGCAACAGTTGAAAAAGACAATATTTCGAAGTTCCCGAGAGCTTTCGTATCCGGCAATGACTGCATCACGTCGAATTTCTACGATCCAAGACGAAAATAGTTTGTTTTTTTGCTGTTGGCGTGGAGTCTAGCTGTTGTGTACCCGAACCCTATTCGGATCATCAAATAGGATTGTAAGTTGGTTCATCATTTTATGAACAGATTCAAATTGTATTACCCCATTCTTAATCAATACCATGCAGGTGTGACTGACAGTC,% decrease =/− SE TP1,41 ± 5%
same,% decrease =/− SE TP2,31 ± 7%
"GS1888: dsRNA trigger SEQ ID NO 182; gene target Succinate dehydrogenase [ubiquinone] iron-sulfur subunit, mitochondrial (nucleic acid) TTTTAGGCGTTACAATCTTCAATAAATAACTAACATCGATAACAGGTCGTATACCAGCAGATACTAGTAAAGAAACGAAGATTTACCCCCTTCCTCATACCTATGTAGTTAAGGACATCGTCCCAGATCTCACACAGTTTTACAAACAGTATAAGTCCATCAAGCCATACCTTCAACGTACATCTCCCTCACCCAATGGTAAAGAATATCTACAAAGTAAGGAGGACAGAAAAAAACTCGATGGGTTATATGAGTGCATTTTGTGCGCATGCTGTTCTACTTCATGCCCCTCTTACTGGTGGAACTCTGAAGAATACTTGGGCCCAGCTGTTCTGATGCAAAGCTATAGATGGTTAGCAGATTCTCGAGATGAAAAGACAGCTGAGCGAAAGAGTGCTCTGGATAATAGTATGAGTCTCTATCGATGTCATACCATATTAAATTGTT",% decrease =/− SE TP1,19 ± 6%
same,% decrease =/− SE TP2,19 ± 6%
GS1894: dsRNA trigger SEQ ID NO 123; gene target eka-like_protein (nucleic acid) AAAGGTAGTGGCTCTGGGTCTGGAAAAGGGAAAAATGTAGAAAAGAATGTTGCTGTTGCAACCCCTAAATTACCAAAACCTCCCCAAACCTCACTGAACACATGGGTTACTGTGGCTCGAAATGGTCAGAAGAAGGCCCGAGTTCTTCAAAATAATAATATACACACCACCCCGATGAGTAAAATAAGACCACGAGTATCAATTGTGGAGAGAGCCTCAGCTGCTCCGACAGATAATAGGCTGTTTCTCCGTCTCCCCCAAGAACATGAATGGCGAAAGCTTTCTCCTGCTGAAATACGTAAGGTAATTTTAAAGAAACTTTCAATCTCACCCGTATTGGTTGGGAATACGTGAGGTAATTGTACATTGGTTGGGAAAATTAA,% decrease =/− SE TP1,4 ± 6%
same,% decrease =/− SE TP2,0 ± 6%
